From patent publication US20210085784A1 (PROGASTRINE ET CANCERS S R L, published 2021)

T1: human progastrin (human, UniProt P01350 22-101)
T1 construct: also called hPG; PG
T1 sequence: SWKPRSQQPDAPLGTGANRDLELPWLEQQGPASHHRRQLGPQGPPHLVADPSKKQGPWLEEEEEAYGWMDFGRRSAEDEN

B1: mAb19 (antibody, V domains shown)
VH: DVQLQESGPGLVKPSQSLSLTCTVTGYSITSDYAWNWIRQFPGNKLEWMGYISFSGYTSYNPSLKSRISVTRDTSRNQFFLQLTSVTTEDTATYYCAREVNYGDSYHFDYWGQGTIVTVSS
VL: QLALTQSSSASFSLGASAKLTCTLSSQHRTYTIEWYQQQSLKPPKYVMEVKKDGSHSTGHGIPDRFSGSSSGADRYLSISNIQPEDEAIYICGVGDAIKGQSVFVFGGGTKVTVL
notes: Murine monoclonal antibody from a hybridoma, raised against hPG 1-14; also called 1B3B4F11
B2: mAb13 (antibody, V domains shown)
VH: EVQLVESGGGLVQPGGSLKLSCAASGFIFSSYGMSWVRQSPDRRLELVASINTFGDRTYYPDSVKGRFTISRDNAKNTLYLQMTSLKSEDTAIYYCARGTGTYWGQGTTLTVSS
VL: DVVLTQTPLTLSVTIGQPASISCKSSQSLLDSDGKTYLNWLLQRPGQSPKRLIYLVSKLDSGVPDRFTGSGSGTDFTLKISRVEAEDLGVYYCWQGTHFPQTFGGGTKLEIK
notes: Murine monoclonal antibody from a hybridoma, raised against hPG 55-80; also called 2C6C3C7
B3: mAb16 (antibody, V domains shown)
VH: QVQLQQSGAELVKPGASVKLSCKASGYTFTSYYMYWVKQRPGQGLEWIGEINPSNGGTNFNEKFKSKATLTVDKSSSTAYMQLSSLTSEDSAVYYCTRGGYYPFDYWGQGTTLTVSS
VL: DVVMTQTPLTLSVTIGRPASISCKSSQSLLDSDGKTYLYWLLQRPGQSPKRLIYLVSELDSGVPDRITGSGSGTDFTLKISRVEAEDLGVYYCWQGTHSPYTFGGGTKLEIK
notes: Murine monoclonal antibody from a hybridoma, raised against hPG 1-14; also called 1E9D9B6
B4: mAb3 (antibody, V domains shown)
VH: EVQLQQSGTVLARPGASVKMSCKASGYIFTSYWVHWVKQRPGQGLEWIGGFYPGNSDSRYNQKFKGKATLTAVTSASTAYMDLSSLTNEDSAVYFCTRRDSPQYWGQGTTLTVSS
VL: DVLMTQTPLSLPVSLGDQASISCRSSQSIVHSNGNTYLEWYLQKPGQSPKLLIYKVSNRFSGVPDRFSGSGSGTDFTLKISRLEAEDLGVYYCFQGSHVPFTFGGGTKLEIK
notes: Murine monoclonal antibody from a hybridoma, raised against hPG 1-14; also called 6B5B11C10
B5: mAb4 (antibody, V domains shown)
VH: QVQLQQSGAELMKPGASVKISCKATGYTFSSSWIEWLKQRPGHGLEWIGEFLPGSGSTDYNEKFKGKATFTADTSSDTAYMLLSSLTSEDSAVYYCATDGNYDWFAYWGQGTLVTVSA
VL: DLVMTQTPLSLPVSLGDQASISCRSSQSLVHSSGVTYLHWYLQKPGQSPKLLIYKVSNRFSGVPDRFSGSGSGTDFTLKISRVEAEDLGVYFCSQSTHVPPTFGSGTKLEIK
notes: Murine monoclonal antibody from a hybridoma, raised against hPG 1-14; also called 20D2C3G2

Target: T1, human progastrin
Assay: epitope mapping, method not described

Row | Binder | binding result
1 | B1 | binds
2 | B2 | binds
3 | B3 | binds
4 | B4 | binds
5 | B5 | binds
